Assay results taken from patent US9359622B2, “Method for biotechnological production of dihydrochalcones” (Symrise AG, priority 2012, dated 2016).

Legend:
[1] = Activity measurements for determination of the temperature optimum for CHI; type: biochemical
Description: (§1) For the purposes of the present invention especially preferred is the use of a chalcone isomerase, having one, several or all the following characteristics and/or a temperature and pH stability according to Tables 1-3:
(§2) A photometric determination allowed—for further investigation of the CHI activity—the reduction over time in the concentration of naringenin chalcone in a cell-free protein crude extract to be observed.

[2] = Temperature stability of CHI; type: biochemical
Description: as §1, §2

[3] = Activity measurements for determination of the pH optimum of CHI; type: biochemical
Description: as §1, §2

[4] = substrate: O=C(/C=C/c1ccc(O)cc1)c1c(O)cc(O)cc1O; assay: Characterisation of the enzyme activity of the CHI following expression of the vector pET28b_CHI in E. coli; type: biochemical, Eubacterium ramulus DSM 16296; settings: other: CHI expressed from pET28b_CHI in E. coli; substrate not given
Description: Following expression of for example pET28b_CHI in E. coli (see above) CHI can be established both in the soluble and in the insoluble fractions.
Following purification with for example anion exchange chromatography, hydrophobic interaction chromatography, size exclusion chromatography and/or Resource Q purification the CHI can be isolated for characterization (FIG. 5 provides examples of the results of the individual purification steps following expression of the vector pET28b_CHI in E. coli).
The values in the table in Table 6 show (further) results of the chalcone isomerase activity of the expressed CHI, obtained by photometric determination (at 368 nm) in relation to the degradation of naringenin chalcone (to form […]).
as §2

B1: Eubacterium ramulus DSM 16296 chalcone isomerase (CHI), wild type, SEQ ID NO:3 (Eubacterium ramulus) (protein)
chain: MADFKFEPMRSLIYVDCVSEDYRPKLQRWIYKVHIPDSISQFEPYVTKYAFYPSFPIPPQGDRFGYARMQLTEHHWLVSDLDPRLEIKAIAETFPMDVLVWQGQIPAAAHTDAQIDSDGDAGNAARKSNNAEGNPFIFAFLPMWWEKDLKGKGRTIEDGANYRFNMTIGFPEGVDKAEGEKWLFEKVVPILQAAPECTRVLASAVKKDINGCVMDWVLEIWFENQSGWYKVMVDDMKALEKPSWAQQDAFPFLKPYHNVCSAAVADYTPSNNLANYRGYITMR
Spec. activity ([1]; 30° C.): 373.47 U/mg
Spec. activity ([1]; 37° C.): 795.04 U/mg
Spec. activity ([1]; 40° C.): 887.73 U/mg
Spec. activity ([1]; 45° C.): 1133.38 U/mg
Spec. activity ([1]; 50° C.): 748.66 U/mg
Spec. activity ([1]; RT (23° C.)): 158.39 U/mg
Spec. activity ([2]; 25° C., 0 h): 188.56 U/mg
Spec. activity ([2]; 25° C., 0.5 h): 136.70 U/mg
Spec. activity ([2]; 25° C., 1 h): 141.10 U/mg
Spec. activity ([2]; 25° C., 2 h): 152.08 U/mg
Spec. activity ([2]; 25° C., 4 h): 152.48 U/mg
Spec. activity ([2]; 25° C., 6 h): 146.46 U/mg
Spec. activity ([2]; 25° C., 24 h): 116.37 U/mg
Spec. activity ([2]; 30° C., 0 h): 188.56 U/mg
Spec. activity ([2]; 30° C., 0.5 h): 169.66 U/mg
Spec. activity ([2]; 30° C., 1 h): 158.01 U/mg
Spec. activity ([2]; 30° C., 2 h): 154.62 U/mg
Spec. activity ([2]; 30° C., 4 h): 145.77 U/mg
Spec. activity ([2]; 30° C., 6 h): 147.18 U/mg
Spec. activity ([2]; 30° C., 24 h): 119.96 U/mg
Spec. activity ([2]; 37° C., 0 h): 188.56 U/mg
Spec. activity ([2]; 37° C., 0.5 h): 155.20 U/mg
Spec. activity ([2]; 37° C., 1 h): 164.39 U/mg
Spec. activity ([2]; 37° C., 2 h): 156.17 U/mg
Spec. activity ([2]; 37° C., 4 h): 156.84 U/mg
Spec. activity ([2]; 37° C., 6 h): 156.21 U/mg
Spec. activity ([2]; 37° C., 24 h): 93.93 U/mg
Spec. activity ([2]; 41° C., 0 h): 188.56 U/mg
Spec. activity ([2]; 41° C., 0.5 h): 151.96 U/mg
Spec. activity ([2]; 41° C., 1 h): 154.22 U/mg
Spec. activity ([2]; 41° C., 2 h): 149.12 U/mg
Spec. activity ([2]; 41° C., 4 h): 146.59 U/mg
Spec. activity ([2]; 41° C., 6 h): 149.39 U/mg
Spec. activity ([2]; 41° C., 24 h): 93.30 U/mg
Spec. activity ([2]; 44° C., 0 h): 188.56 U/mg
Spec. activity ([2]; 44° C., 0.5 h): 158.12 U/mg
Spec. activity ([2]; 44° C., 1 h): 150.15 U/mg
Spec. activity ([2]; 44° C., 2 h): 129.07 U/mg
Spec. activity ([2]; 44° C., 4 h): 115.07 U/mg
Spec. activity ([2]; 44° C., 6 h): 83.35 U/mg
Spec. activity ([2]; 50° C., 0 h): 188.56 U/mg
Spec. activity ([2]; 50° C., 0.5 h): 50.49 U/mg
Spec. activity ([2]; 50° C., 1 h): 3.05 U/mg
Spec. activity ([2]; 50° C., 2 h): 2.35 U/mg
Spec. activity ([2]; RT (23° C.), 0 h): 188.56 U/mg
Spec. activity ([2]; RT (23° C.), 0.5 h): 145.67 U/mg
Spec. activity ([2]; RT (23° C.), 1 h): 148.67 U/mg
Spec. activity ([2]; RT (23° C.), 2 h): 144.05 U/mg
Spec. activity ([2]; RT (23° C.), 4 h): 146.39 U/mg
Spec. activity ([2]; RT (23° C.), 6 h): 141.06 U/mg
Spec. activity ([2]; RT (23° C.), 24 h): 125.68 U/mg
Spec. activity ([3]; pH value 6.13): 82.07 U/mg
Spec. activity ([3]; pH value 6.35): 163.43 U/mg
Spec. activity ([3]; pH value 6.4): 177.59 U/mg
Spec. activity ([3]; pH value 6.55): 169.79 U/mg
Spec. activity ([3]; pH value 6.8): 185.86 U/mg
Spec. activity ([3]; pH value 6.93): 175.37 U/mg
Spec. activity ([3]; pH value 7.12): 174.86 U/mg
Spec. activity ([3]; pH value 7.45): 173.01 U/mg
Spec. activity ([3]; pH value 7.7): 168.79 U/mg
Spec. activity ([3]; pH value 8): 152.55 U/mg
Km [4]: 36.83 µM
Vmax [4]: 107 µmol/min/mg
kcat [4]: 417 s⁻¹
kcat/Km [4]: 1.13e+07 M⁻¹ s⁻¹
